Target: the molecule itself
Test: native MS

B1: enoyl-ACP reductase (FabI) from E. coli (enzyme)
chain: MGFLSGKRILVTGVASKLSIAYGIAQAMHREGAELAFTYQNDKLKGRVEEFAAQLGSDIVLQCDVAEDASIDTMFAELGKVWPKFDGFVHSIGFAPGDQLDGDYVNAVTREGFKIAHDISSYSFVAMAKACRSMLNPGSALLTLSYLGAERAIPNYNVMGLAKASLEANVRYMANAMGPEGVRVNAISAGPIRTLAASGIKDFRKMLAHCEAVTPIRRTVTIEDVGNSAAFLCSDLSAGISGEVVHVDGGFSIAAMNELELK
  stoichiometry N: 4
